Laboratory results published in publication PMC12456131.

What was measured:
Assay in all cases: co-IP (IP: Strep, western blot bands quantified with ImageJ)
[1] = molecular target: GP4 of PRRSV HuN4-F112, Strep-tagged (pCAGGS-GP4-Strep); details: plasmids cotransfected into HEK-293T cells; parent: est. 0.86; read off a plot
[2] = molecular target: CD163 receptor, HA-tagged (pCAGGS-CD163-HA) (UniProt Q2VL90); details: plasmids cotransfected into HEK-293T cells, read off a plot
[3] = molecular target: GP2a of PRRSV HuN4-F112, Strep-tagged (pCAGGS-GP2a-Strep); details: chain shown with the change; plasmids cotransfected into HEK-293T cells; parent: est. 2.9; read off a plot

With “CD163 receptor, HA-tagged (pCAGGS-CD163-HA) (from UniProt Q2VL90) R561A” as the molecule, how does the response (relative ratio of CD163/GP4) [1] read?
The response (relative ratio of CD163/GP4) was 0.64.

“CD163 receptor, HA-tagged (pCAGGS-CD163-HA) (from UniProt Q2VL90) R561del” was tested. Which response (relative ratio of CD163/GP4) [1] did it give?
The response (relative ratio of CD163/GP4) was 0.27.

“GP2a of PRRSV HuN4-F112, Strep-tagged (pCAGGS-GP2a-Strep) V118I” was tested. Which response (relative ratio of CD163/GP2) ([2]; parent: est. 0.18) did it give?
Its response (relative ratio of CD163/GP2) is 0.67.

For “GP2a of PRRSV HuN4-F112, Strep-tagged (pCAGGS-GP2a-Strep) V118del”, which response (relative ratio of CD163/GP2) ([2]; parent: est. 0.61) is on record?
The response (relative ratio of CD163/GP2) was 0.23.

“GP4 of PRRSV HuN4-F112, Strep-tagged (pCAGGS-GP4-Strep) N43D” was tested. Which response (relative ratio of CD163/GP4) ([2]; parent: est. 0.74) did it give?
The response (relative ratio of CD163/GP4) was 1.4.

“GP4 of PRRSV HuN4-F112, Strep-tagged (pCAGGS-GP4-Strep) N43del” was tested. Which response (relative ratio of CD163/GP4) ([2]; parent: est. 1.2) did it give?
The response (relative ratio of CD163/GP4) was 0.57.

B1: CD163 receptor, HA-tagged (pCAGGS-CD163-HA), Q2VL90 R561A (protein)
chain: KDKELRLTGGENKCSGRVEVKVQEEWGTVCNNGWDMDVVSVVCRQLGCPTAIKATGWANFSAGSGRIWMDHVSCRGNESALWDCKHDGWGKHNCTHQQDAGVTCSDGSDLEMGLVNGGNRCLGRIEVKFQGRWGTVCDDNFNINHASVVCKQLECGSAVSFSGSANFGEGSGPIWFDDLVCNGNESALWNCKHEGWGKHNCDHAEDAGVICLNGADLKLRVVDGVTECSGRLEVKFQGEWGTICDDGWDSDDAAVACKQLGCPTAVTAIGRVNASEGTGHIWLDSVSCHGHESALWQCRHHEWGKHYCNHDEDAGVTCSDGSDLELRLKGGGSHCAGTVEVEIQKLVGKVCDRSWGLKEADVVCRQLGCGSALKTSYQVYSKTKATNTWLFVSSCNGNETSLWDCKNWQWGGLSCDHYDEAKITCSAHRKPRLVGGDIPCSGRVEVQHGDTWGTVCDSDFSLEAASVLCRELQCGTVVSLLGGAHFGEGSGQIWAEEFQCEGHESHLSLCPVAPAPDGTCSHSRDVGVVCSRYTQIRLVNGKTPCEGRVELNILGSWGSLCNSHWDMEDAHVLCQQLKCGVALSIPGGAPFGKGSEQVWRHMFHCTGTEKHMGDCSVTALGASLCSSGQVASVICSGNQSQTLSPCNSSSSDPSSSIISEENGVACIGSGQLRLVDGGGRCAGRVEVYHEGSWGTICDDSWDLNDAHVVCKQLSCGWAINATGSAHFGEGTGPIWLDEINCNGKESHIWQCHSHGWGRHNCRHKEDAGVICSEFMSLRLISENSRETCAGRLEVFYNGAWGSVGRNSMSPATVGVVCRQLGCADRGDISPASSDKTVSRHMWVDNVQCPKGPDTLWQCPSSPWKKRLASPSEETWITCANKIRLQEGNTNCSGRVEIWYGGSWGTVCDDSWDLEDAQVVCRQLGCGSALEAGKEAAFGQGTGPIWLNEVKCKGNETSLWDCPARSWGHSDCGHKEDAAVTCSEIAKSRESLHATGRSSFVALAIFGVILLACLIAFLIWTQKRRQRQRLSVFSGGENSVHQIQYREMNSCLKADETDMLNPSGDHSEVQ
Which response (relative ratio of CD163/GP2) [3] does the source give for B1 here?
Its response (relative ratio of CD163/GP2) is 1.8.

B2: CD163 receptor, HA-tagged (pCAGGS-CD163-HA), Q2VL90 R561del (protein)
chain: KDKELRLTGGENKCSGRVEVKVQEEWGTVCNNGWDMDVVSVVCRQLGCPTAIKATGWANFSAGSGRIWMDHVSCRGNESALWDCKHDGWGKHNCTHQQDAGVTCSDGSDLEMGLVNGGNRCLGRIEVKFQGRWGTVCDDNFNINHASVVCKQLECGSAVSFSGSANFGEGSGPIWFDDLVCNGNESALWNCKHEGWGKHNCDHAEDAGVICLNGADLKLRVVDGVTECSGRLEVKFQGEWGTICDDGWDSDDAAVACKQLGCPTAVTAIGRVNASEGTGHIWLDSVSCHGHESALWQCRHHEWGKHYCNHDEDAGVTCSDGSDLELRLKGGGSHCAGTVEVEIQKLVGKVCDRSWGLKEADVVCRQLGCGSALKTSYQVYSKTKATNTWLFVSSCNGNETSLWDCKNWQWGGLSCDHYDEAKITCSAHRKPRLVGGDIPCSGRVEVQHGDTWGTVCDSDFSLEAASVLCRELQCGTVVSLLGGAHFGEGSGQIWAEEFQCEGHESHLSLCPVAPPDGTCSHSRDVGVVCSRYTQIRLVNGKTPCEGRVELNILGSWGSLCNSHWDMEDAHVLCQQLKCGVALSIPGGAPFGKGSEQVWRHMFHCTGTEKHMGDCSVTALGASLCSSGQVASVICSGNQSQTLSPCNSSSSDPSSSIISEENGVACIGSGQLRLVDGGGRCAGRVEVYHEGSWGTICDDSWDLNDAHVVCKQLSCGWAINATGSAHFGEGTGPIWLDEINCNGKESHIWQCHSHGWGRHNCRHKEDAGVICSEFMSLRLISENSRETCAGRLEVFYNGAWGSVGRNSMSPATVGVVCRQLGCADRGDISPASSDKTVSRHMWVDNVQCPKGPDTLWQCPSSPWKKRLASPSEETWITCANKIRLQEGNTNCSGRVEIWYGGSWGTVCDDSWDLEDAQVVCRQLGCGSALEAGKEAAFGQGTGPIWLNEVKCKGNETSLWDCPARSWGHSDCGHKEDAAVTCSEIAKSRESLHATGRSSFVALAIFGVILLACLIAFLIWTQKRRQRQRLSVFSGGENSVHQIQYREMNSCLKADETDMLNPSGDHSEVQ
How did the response (relative ratio of CD163/GP2) [3] turn out when B2 was run?
Its response (relative ratio of CD163/GP2) is 1.8.
